According to patent US20220267464A1 (Hoffmann-La Roche, published 2022):

T1: hu N(A2-B2)A-avi-His (human, biotin on the avi tag where used biotinylated)
T1 construct: chimeric soluble antigen; also called hu N(A2-B2)A-avi-His B; human CEA (A2 domain)
T1 chain: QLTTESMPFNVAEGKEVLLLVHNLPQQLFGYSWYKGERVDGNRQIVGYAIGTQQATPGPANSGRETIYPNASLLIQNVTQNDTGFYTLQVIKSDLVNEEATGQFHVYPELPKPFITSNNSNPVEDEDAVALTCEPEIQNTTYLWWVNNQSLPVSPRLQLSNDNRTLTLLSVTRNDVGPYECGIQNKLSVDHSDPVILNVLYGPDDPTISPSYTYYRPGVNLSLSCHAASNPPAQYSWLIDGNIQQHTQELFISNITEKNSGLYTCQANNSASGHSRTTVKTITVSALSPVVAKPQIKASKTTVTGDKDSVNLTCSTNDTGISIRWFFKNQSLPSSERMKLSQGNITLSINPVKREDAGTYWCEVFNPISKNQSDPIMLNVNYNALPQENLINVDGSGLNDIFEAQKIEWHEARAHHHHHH

T2: human CEACAM5 (carcinoembryonic antigen, CEA) on cells (human, UniProt P06731 35-685)
T2 construct: endogenous on MKN45 gastric adenocarcinoma cells; full-length cDNA stably transfected in the CHO-K1 clones; also called huCEACAM5; MKN45 cells
T2 sequence: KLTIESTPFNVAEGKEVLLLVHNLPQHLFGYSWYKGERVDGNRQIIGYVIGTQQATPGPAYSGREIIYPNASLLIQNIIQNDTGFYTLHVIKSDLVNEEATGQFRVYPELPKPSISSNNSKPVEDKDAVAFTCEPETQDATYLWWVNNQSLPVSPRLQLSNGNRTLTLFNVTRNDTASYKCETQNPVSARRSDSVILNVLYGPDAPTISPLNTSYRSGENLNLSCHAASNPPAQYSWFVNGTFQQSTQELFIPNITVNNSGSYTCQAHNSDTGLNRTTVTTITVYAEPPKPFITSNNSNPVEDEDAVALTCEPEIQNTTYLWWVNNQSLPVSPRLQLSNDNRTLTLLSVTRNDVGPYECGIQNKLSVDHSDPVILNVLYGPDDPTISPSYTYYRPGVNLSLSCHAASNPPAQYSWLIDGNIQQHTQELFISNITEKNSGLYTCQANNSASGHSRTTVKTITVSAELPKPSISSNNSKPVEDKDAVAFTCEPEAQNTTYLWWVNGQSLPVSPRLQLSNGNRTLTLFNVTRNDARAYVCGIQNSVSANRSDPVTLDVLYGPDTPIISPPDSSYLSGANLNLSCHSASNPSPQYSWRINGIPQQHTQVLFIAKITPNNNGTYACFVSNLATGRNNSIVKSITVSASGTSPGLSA


Tests used:
hu N(A2-B2)A-avi-His = target: T1, hu N(A2-B2)A-avi-His; experiment: SPR (Biacore T200), antigen on CM5 chip, Fab as analyte
From the text: Data were double-referenced against the unimmobilized flow cell 1 and a zero concentration of the analyte. The sensorgrams of the analytes were fitted to a simple 1:1 Langmuir interaction model.

[1] = target: T2, human CEACAM5 (carcinoembryonic …); experiment: flow cytometry, MKN45 cells; design: AUC: unit not given beside the values
[2] = target: T2, human CEACAM5 (carcinoembryonic …); experiment: flow cytometry, MKN-45 cells, goat F(ab')2 anti-human Fcγ-PE, gMFI

Binder | Kd (hu N(A2-B2)A-avi-His) | AUC [1] | binding result [2]
P1AE4138 (Fab, V domains shown, Fab fragment; Ckappa light chain; also called Fab derived from P1AE2167) VH: EVQLLESGGGLVQPGGSLRLSCAASGFTFTDYYMNWVRQAPGKGLEWLGFIGNKANGYTTEYSASVKGRFTISRDKSKNTLYLQMNSLRAEDTATYYCTRDRGLRFYFDYWGQGTTVTVSS VL: EIVLTQSPATLSLSPGERATLSCRASSSVTYIHWYQQKPGQAPRSWIYATSNLASGIPARFSGSGSGTDFTLTISSLEPEDFAVYYCQHWSSKPPTFGQGTKLEIK | 1.47 nM | – | –
P1AE4139 (Fab, V domains shown, Fab fragment; also called Fab derived from P1AE2176) VH: EVQLLESGGGLVQPGGSLRLSCAASGFTFTDYYMNWVRQAPGKGLEWVGFIGNKANGYTTEYSASVKGRFTISRDNSKNTLYLQMNSLRAEDTAVYYCTRDRGLRFYFDYWGQGTTVTVSS VL: EIVLTQSPATLSLSPGERATLSCRASSSVTYIHWYQQKPGSSPKSWIYATSNLASGIPARFSGSGSGTDFTLTISSLEPEDFAVYYCQHWSSKPPTFGQGTKLEIK | 7.58 nM | – | –
P1AE4141 (Fab, V domains shown, Fab fragment; also called Fab derived from P1AE2179) VH: EVQLLESGGGLVQPGGSLRLSCAASGFTFTDYYMNWVRQAPGKGLEWVGFIGNKANGYTTEYSASVKGRFTISRDKSKNTLYLQMNSLRAEDTAVYYCARDRGLRFYFDYWGQGTTVTVSS VL: QTVLTQSPATLSLSPGERATLSCRASSSVTYIHWYQQKPGSSPKSWIYATSNLASGIPARFSGSGSGTDYTLTISSLEPEDFAVYYCQHWSSKPPTFGQGTKLEIK | 1.83 nM | – | –
P1AE4140 (Fab, V domains shown, Fab fragment; also called Fab derived from P1AE2177) VH: EVQLLESGGGLVQPGGSLRLSCAASGFTFTDYYMNWVRQAPGKGLEWVGFIGNKANGYTTEYSASVKGRFTISRDNSKNTLYLQMNSLRAEDTAVYYCTRDRGLRFYFDYWGQGTTVTVSS VL: EIVLTQSPATLSLSPGERATLSCRASSSVTYIHWYQQKPGQAPRSWIYATSNLASGIPARFSGSGSGTDFTLTISSLEPEDFAVYYCQHWSSKPPTFGQGTKLEIK | 7.62 nM | – | –
P1AE4137 (Fab, V domains shown, Fab fragment; also called Fab derived from P1AE2166) VH: EVQLLESGGGLVQPGGSLRLSCAASGFTFTDYYMNWVRQAPGKGLEWLGFIGNKANGYTTEYSASVKGRFTISRDKSKNTLYLQMNSLRAEDTATYYCTRDRGLRFYFDYWGQGTTVTVSS VL: EIVLTQSPATLSLSPGERATLSCRASSSVTYIHWYQQKPGSSPKSWIYATSNLASGIPARFSGSGSGTDFTLTISSLEPEDFAVYYCQHWSSKPPTFGQGTKLEIK | 11.3 nM | – | –
P1AE4142 (Fab, V domains shown, Fab fragment; also called Fab derived from P1AE2181) VH: EVQLLESGGGLVQPGGSLRLSCAASGFTFTDYYMNWVRQAPGKGLEWVGFIGNKANGYTTEYSASVKGRFTISRDKSKNTLYLQMNSLRAEDTAVYYCARDRGLRFYFDYWGQGTTVTVSS VL: EIVLTQSPATLSLSPGERATLSCRASSSVTYIHWYQQKPGSSPKSWIYATSNLASGIPARFSGSGSGTDFTLTISSLEPEDFAVYYCQHWSSKPPTFGQGTKLEIK | 2.64 nM | – | –
P1AE4136 (Fab, V domains shown, Fab fragment; also called Fab derived from P1AE2165) VH: EVQLLESGGGLVQPGGSLRLSCAASGFTFTDYYMNWVRQAPGKGLEWLGFIGNKANGYTTEYSASVKGRFTISRDKSKNTLYLQMNSLRAEDTATYYCTRDRGLRFYFDYWGQGTTVTVSS VL: QTVLTQSPATLSLSPGERATLSCRASSSVTYIHWYQQKPGQAPRLLIYATSNLASGIPARFSGSGSGTDFTLTISSLEPEDFAVYYCQHWSSKPPTFGQGTKLEIK | 1.25 nM | – | –
P1AE4143 (Fab, V domains shown, Fab fragment; also called Fab derived from P1AE2182) VH: EVQLLESGGGLVQPGGSLRLSCAASGFTFTDYYMNWVRQAPGKGLEWVGFIGNKANGYTTEYSASVKGRFTISRDKSKNTLYLQMNSLRAEDTAVYYCARDRGLRFYFDYWGQGTTVTVSS VL: EIVLTQSPATLSLSPGERATLSCRASSSVTYIHWYQQKPGQAPRSWIYATSNLASGIPARFSGSGSGTDFTLTISSLEPEDFAVYYCQHWSSKPPTFGQGTKLEIK | 2.92 nM | – | –
P1AE4135 (Fab, V domains shown, Fab fragment; also called Fab derived from P1AE2164) VH: EVQLLESGGGLVQPGGSLRLSCAASGFTFTDYYMNWVRQAPGKGLEWLGFIGNKANGYTTEYSASVKGRFTISRDKSKNTLYLQMNSLRAEDTATYYCTRDRGLRFYFDYWGQGTTVTVSS VL: QTVLTQSPATLSLSPGERATLSCRASSSVTYIHWYQQKPGSSPKSWIYATSNLASGIPARFSGSGSGTDYTLTISSLEPEDFAVYYCQHWSSKPPTFGQGTKLEIK | 1.7 nM | – | –
P1AE3122 (antibody, IgG1, V domains shown, huIgG1 P329G LALA; also called MFE-H27 / MFE-L24) VH: QVQLVQSGAEVKKPGASVKVSCKASGFNIKDSYMHWVRQAPGQGLEWMGWIDPENGDTEYAPKFQGRVTMTTDTSISTAYMELSRLRSDDTAVYYCARGTPTGPYYFDYWGQGTLVTVSS VL: DIQMTQSPSSLSASVGDRVTITCRASSSVSYMHWYQQKPGKAPKLLIYSTSNLASGVPSRFSGSGSGTDFTLTISSLQPEDFATYYCQQRSSYPLTFGGGTKLEIK | – | 422 | no binding (tested: about 300 nM)
P1AE3124 (antibody, IgG1, V domains shown, huIgG1 P329G LALA; also called MFE-H25 / MFE-L24) VH: QVQLVQSGAEVKKPGASVKVSCKASGYTFKDSYMHWVRQAPGQGLEWMGWIDPENGDTEYAPKFQGRVTMTTDTSISTAYMELSRLRSDDTAVYYCNEGTPTGPYYFDYWGQGTLVTVSS VL: DIQMTQSPSSLSASVGDRVTITCRASSSVSYMHWYQQKPGKAPKLLIYSTSNLASGVPSRFSGSGSGTDFTLTISSLQPEDFATYYCQQRSSYPLTFGGGTKLEIK | – | 847 | no binding (tested: about 300 nM)
P1AE3123 (antibody, IgG1, V domains shown, huIgG1 P329G LALA; also called MFE-H26 / MFE-L24) VH: QVQLVQSGAEVKKPGASVKVSCKASGFNIKDSYMHWVRQAPGQGLEWMGWIDPENGGTNYAQKFQGRVTMTTDTSISTAYMELSRLRSDDTAVYYCNEGTPTGPYYFDYWGQGTLVTVSS VL: DIQMTQSPSSLSASVGDRVTITCRASSSVSYMHWYQQKPGKAPKLLIYSTSNLASGVPSRFSGSGSGTDFTLTISSLQPEDFATYYCQQRSSYPLTFGGGTKLEIK | – | 1090 | no binding (tested: about 300 nM)
P1AE0289 CEA (A5B7) Fab (parental murine antibody) (Fab, V domains shown, Fab fragment) VH: EVKLVESGGGLVQPGGSLRLSCATSGFTFTDYYMNWVRQPPGKALEWLGFIGNKANGYTTEYSASVKGRFTISRDKSQSILYLQMNTLRAEDSATYYCTRDRGLRFYFDYWGQGTTLTVSS VL: QTVLSQSPAILSASPGEKVTMTCRASSSVTYIHWYQQKPGSSPKSWIYATSNLASGVPARFSGSGSGTSYSLTISRVEAEDAATYYCQHWSSKPPTFGGGTKLEIK | 0.559 nM | – | –
